Results: the DeepSol protein solubility set

Assay: soluble on expression in E. coli; label from the status in PepcDB or PDB records

Which “soluble on expression in E. coli” value does the source give for “MGSDKIHHHHHHMMYQTYDLYSRSAEMMNGFISVNQQLLTHPFNPFSNTLLGKSINAALDSAYHHTKVYDKQPFDIKTTIIDGETVNIDEQVILAKPFCNLIHFKQDTKVQQPKLFLVAPLSGHHATLLKATIERLILDHDVYITDWLDAKNVPLSEGNFDFDDYVTYLIEFMKEIGEDTHVLAVCQPAVQALIATAVLAKDKDAATPKSLTIIAGPIDTSINPNELNKYASSKDLSWFENNVIMTVPERFPGAGRKVYPGFIQLTSFMAMNIENHVKKHTDYFGHVFHGKEDKQESHRDFYDEYLAVLDLNSEFYLETLDRVFINQDLANGKMTYHGELVDLSAITDTALHTIEGKNDDICSLGQTQAAQALCSGIPEQNKLDQVFDGVGHFGTFSGSAFRERIAPSIAEFIQKHK” here?
Its value is “not soluble”.

Which “soluble on expression in E. coli” value does the source give for “MRWLLVVAGLLAAGGLAQTPPPPAAQTAEQNPLRLGVQLYALGRYDAALTLFERALKENPQDPEALYWLARTQLKLGLVNPALENGKTLVARTPRYLGGYMVLSEAYVALYRQAEDRERGKGYLEQALSVLKDAERVNPRYAPLHLQRGLVYALLGERDKAEASLKQALALEDTPEIRSALAELYLSMGRLDEALAQYAKALEQAPKDLDLRVRYASALLLKGKAEEAARVLEEGHRIKPLNAEGWYTLGQAYLALGRTKEAGVALENAVALAPLRFPAAYYYLGQVYLALGDYPKAKSRLTVAVRLEPKRAEYRYSLCLANEKLGDKEGARYQCQEALKLRPDYKEAEEVLKRL” here?
The value was “soluble”.

For “MFDISHMGRLLIEDPEKKLQYFTTNNLDKLSVGKVQYNLLPNEKGGIKDDVTVYMLSEIEFFLCVNAANRQKVINWLSPHLKLRDLSGELVQIALQGPKSEEIISKFYPVSDLKYYRFKVFDKTIISRTGYTGEDGFEIYVSPEEGKELFLELVKLAKPCGLGARDVLRIEAGLPLYGNELSEEITPIEVNLEKFVDFSKEFIGKEAMLKKKVKKKLFGLELTEKGIPRKGYRVFKGDREIGWISSGTYSPTLNKGIALCFVDIEERKEGNEVEIEVRGRRVRGVLRKYPFVRTPAGRYQKLEHHHHHH”, which “soluble on expression in E. coli” value is on record?
The value was “not soluble”.

Which “soluble on expression in E. coli” value does the source give for “MLTLVGTYPPIRCGIATFNRDLREALLREGVPSQVAVVAHPEEVALPFPQEVVRVVAKEDREGYRALARLLRGPVILQHEYGLYGGKWGDYVLDLLEAQGPKLVVLHTLLQAPPPGLGEADLRYMQGLLRAMAERAQAFVALHPEGEGLLRALGVRIPVAHIPHGVPDLPRPPKEALKRALGLEGAFLLFTYGLLGPGKGLEFALKVLARVLPHNPRVRYLVAGRLHPNLERHEGRRYLERVREMAEALGVGEAFLLREGYLSEEELYRLAGAADLFLLPYPNLEQVSSGTLSYALALGKAVLSTPFRHARAALAAGRGVLLPLEEEAWAQAVLALAESPERLREMEERAYAYARDFTWPRVARAYRRLLEEVADVRPRVA” here?
The value was “soluble”.

With “MALSSAPILITGASQRVGLHCALRLLEHGHQVIISYRTEHASVAQLRQAGAHTLHGDFSSEASIMAFIEQLKSHTSSLRAIVHNASEWLAETPGDEAENFTRMFSVHMLAPYLINLHCEALLHASDVADIVHISDDVTRKGSSKHIAYCATKAGLESLTLSFAARFAPLVKVNGIAPALLMFQPKDDAAYRANALAKSAMGIEPGAEVIYQSLRYLLDSTYVTGTTLTVNGGRHV” as the sequence, how does the “soluble on expression in E. coli” value read?
The value was “not soluble”.

Which “soluble on expression in E. coli” value does the source give for “MSVVSERDVDEYSKQKPETYVLQVSERERKEKYERKNPPIPLDNEYNYQDVTPSPFPFHIDAPSLVFMGRLGEEPISAHFTLTNRTCKPFWFKIKVSSRELFKVRPTNGKLENSERVVIRVIFYPNVRVPKPFCEYLHVYALFAGLGDRTAYEAFNRLDRQRTLPPKRLFTEFVWHPNIGMTQAYENGKLMEMMRAKQKLLDYRKDENDKIKTFQVDFNNVIFDHRNRVLDRMLKANVVEKEKLLYMPTPNLNLYMQNLRNQKNRSKLAVLLERRGDAFKGVQNLYAEEVLAKRTGDKMFEKYKKKKGTKGYQSLDAKLYRPVKVVRNTKNKKKKGKK” here?
The value was “not soluble”.

With “MGSDKIHHHHHHMSHPPLIVHVIFHLGVGGLENGLVNLINHIPADRYRHAIICLKGFSEFHKRLNRDDVEIIALNKREGKDFSVYGKLYRVFRQLKPDIVHTRNLTAMEAQVVAAVAGVKARVHGEHGRDIFDLDGKNWKYNLLRKAIRPFIHHFITVSKDLENWLIDTVKVSPVKVHQIYNGVEHLRFHPGGTVPVEIFPPDFFAGRPFVVGSVGRMAAVKDFPTLVQAFLMLRNELSEIDRPLRLIIAGEGVARAECEAMLRSAGVEQFAWLPGERDDIPQLMQAMDVFVLPSLGEGISNTVLEAMASGLPVIATRVGGNTELVLEGETGRLVPSGDPVALARAISQYHQDNTAVYKHGQHARAIIEQQFSMRSMTNGYLAVYDRVLGYKSKTETIN” as the sequence, how does the “soluble on expression in E. coli” value read?
The value was “not soluble”.

For “MCRIPVMIVSQPKQLKALSDPTRIKILELLREHPMSVSEIAERLGRDKSTVYRHIKALEDAGLVEVVEKIGNEVVYGRVAYVFLLVPNSNKEIEDLRRAYLSREVEKLIEVLEDSGIRIRDKEKFRSIVQKVFRDIENQSQHILSRLMNSSFDEIALIHILNFLTFLYSHKYVEESKQLFKLLDI”, which “soluble on expression in E. coli” value is on record?
The value was “soluble”.

With “DVFVYGSFQEPSVVNLILECSPVMVPAQLHGYHVYRLKGRLHACISPSENGLINGKILTGLTDSQLENLDMIEGSEYVRKTVEVVLTDTSEKKQVETYVWANKDDPNLYGEWDFEEWRRLHMDKFIEASTKFIEWKKNPDG” as the sequence, how does the “soluble on expression in E. coli” value read?
The value was “not soluble”.

Which “soluble on expression in E. coli” value does the source give for “MYQDLIRNELNEAAETLANFLKDDANIHAIQRAAVLLADSFKAGGKVLSCGNGGSHCDAMHFAEELTGRYRENRPGYPAIAISDVSHISCVSNDFGYDYIFSRYVEAVGREGDVLLGISTSGNSGNVIKAIAAAREKGMKVITLTGKDGGKMAGTADIEIRVPHFGYADRIQEIHIKVIHILIQLIEKEMVK” here?
Its value is “not soluble”.

For “MANQCFNQAKAVLEFRLDPCHLPQTTTYFSSKTGNQMICSLSERGVFFKTDTFSSLSRLVPSYQFKGIAARTVITLSGEKAVALELLHANEESCVPLLVSRDLNNVLLDWRLWADTYSLPMLMINEDNRLVVVKDRSDLRRFFSTTLHFRKKRFLLRYRNPLGLRLMIANQVAL”, which “soluble on expression in E. coli” value is on record?
Its value is “not soluble”.

Which “soluble on expression in E. coli” value does the source give for “MKHWRPFRFPPLIDGAPLAPDAAAEVQASAADGFRQGMDAGYREGFDSGEAAGRDAGYQAGLEQGRAEGAAAARAETLAGLETLGAPLAAAIEQLNKLCRDYQAAQRDEVVDLVAKVARQVIRCELALKPVQILDLVEETLAALPQGAHSQGEVEVLLNPEECQRIRELAPERAAQWKLSADPSLAPGECRLRGAEFEADAGCQQRLERCVDSLREQLAAEEG” here?
Its value is “not soluble”.

With “MNTISILSTTDLPAAWQIEQRAHAFPWSEKTFFGNQGERYLNLKLTADDRMAAFAITQVVLDEATLFNIAVDPDFQRRGLGRMLLEHLIDELETRGVVTLWLEVRASNAAAIALYESLGFNEATIRRNYYPTAQGHEDAIIMALPISMKLHHHHHHHHHH” as the sequence, how does the “soluble on expression in E. coli” value read?
The value was “soluble”.

With “ILKELENLSPEEAAHQKAVVETLLQEDPWRVAKMVKSYLQQHNIPQREVVDTTGLNQSHLSQHLNKGTPMKTQKRAALYTWYVRKQREVAQQFTHAGQGGLIEEPTGDELPTKKGRRNRFKWGPASQQILFQAYERQKNPSKEERETLVEECNRAECIQRGVSPSQAQGLGSNLVTEVRVYNWFANRRKEEAFR” as the sequence, how does the “soluble on expression in E. coli” value read?
The value was “soluble”.

Which “soluble on expression in E. coli” value does the source give for “MRGSHHHHHHGSMTRSALVTGITGQDGAYLAKLLLEKGYRVHGLVARRSSDTRWRLRELGIEGDIQYEDGDMADACSVQRAVIKAQPQEVYNLAAQSFVGASWNQPVTTGVVDGLGVTHLLEAIRQFSPETRFYQASTSEMFGLIQAERQDENTPFYPRSPYGVAKLYGHWITVNYRESFGLHASSGILFNHESPLRGIEFVTRKVTDAVARIKLGKQQELRLGNVDAKRDWGFAGDYVEAMWLMLQQDKADDYVVATGVTTTVRDMCQIAFEHVGLDYRDFLKIDPAFFRPAEVDVLLGNPAKAQRVLGWKPRTSLDELIRMMVEADLRRVSRE” here?
Its value is “soluble”.
